Binding data for nine sequences are collected here from publication PMC11655674.

The series addresses T1, 6xHis-CerM (Cereibacter sphaeroides WS8N) (UniProt Q3J1N9).
T1 sequence: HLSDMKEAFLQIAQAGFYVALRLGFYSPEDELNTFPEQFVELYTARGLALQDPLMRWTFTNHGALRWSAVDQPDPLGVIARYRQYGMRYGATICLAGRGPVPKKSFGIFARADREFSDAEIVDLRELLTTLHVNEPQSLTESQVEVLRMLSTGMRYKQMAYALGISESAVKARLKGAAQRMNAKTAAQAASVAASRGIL
The experiment in a line: EMSA. To be noted: 10 mM Tris pH 7.5, 1 mM EDTA, 0.1 M KCl, 0.1 mM DTT, 5% glycerol, 0.10 mg/mL BSA, 20 min room temperature; 50 ng DNA, 50-200 ng CerM; 4% native gel in TAE pH 7. In general terms: Mobility shift assays separate free from complexed probe on a gel.
In the case of “CAAAAAGACAGGTTTGTTTCAAGACAAGTTTTTCTGGATGGAATTGGACGTCGGGCGGGGTTTTGGCACACAATATGCTTGTTATCCGGGCAGGGACAGCTGGAAGATTTACGGAGACATTTCATGAAACATCCCGTCGACGCCCAC (double strand) [14710 fragment F (147 bp)]”, the binding entry was “no binding”. For “GACATATCCAAAAAGACAGGTTTGTTTCAAGACAAGTTTTTCTGGATGGAATTGGACGTCGGGCGGGGTTTTGGCACACAATATGCTTGTTATCCGGGCAGGGACAGCTGGAAGATTTACGGAGACATTTCATGAAACATCCCGTCGACGCCCAC (double strand) [14710 fragment H (155 bp)]”, the binding entry was “binds”. In the case of “CCCGAATATTCGCGACTTGCAAAGTTTCGGCGGCGAATTCGCTGCAAATTGCATTGCAGAATGCAAAAGACCTCAGAGGCGAGTGACGTGTCTCCCGTGCTCCCGAGGGATGATCCACAGCGGCGGACGCCGAACGAACCCAGCTTGTATGAATGGACATATC (double strand) [14710 fragment G (163 bp)]”, the binding entry was “no binding”. For “CCCGAATATTCGCGACTTGCAAAGTTTCGGCGGCGAATTCGCTGCAAATTGCATTGCAGAATGCAAAAGACCTCAGAGGCGAGTGACGTGTCTCCCGTGCTCCCGAGGGATGATCCACAGCGGCGGACGCCGAACGAACCCAGCTTGTATGAATGGACATATCCAAAAAGACAGGTTTGTTT (double strand) [14710 fragment I (182 bp)]”, the binding result is recorded as “binds”. The value for “CAGCTTGTATGAATGGACATATCCAAAAAGACAGGTTTGTTTCAAGACAAGTTTTTCTGGATGGAATTGGACGTCGGGCGGGGTTTTGGCACACAATATGCTTGTTATCCGGGCAGGGACAGCTGGAAGATTTACGGAGACATTTCATGAAACATCCCGTCGACGCCCAC (double strand) [14710 fragment B (170 bp)]” was “binds”.

As for “GCGAATTCAAGGTCACGATGATCCAGAAATATCGGCAACTTTAGATTGTATTCAGCTTCGCCTATGCGAGAGTAACTCATGATTAACCATTGGGCATCATTGTAGTTAATACCTAGGGTGGCGATGCGGAGCGCGAGTGATGAGAATACTGCTGGTGGAGGATGATCCGACCACGTCCCGCAGCATCGAATTGATGCTGACTCATGCGAACCTGAACGTCTATTGCACCGATCTCGGCGAGGACGGGATCGATCTGGCCAAGCTCTACGATTACGATCTCATCCTGCTGAGCTCGC (double strand) [ctrA control region (281 bp)]”, the binding result is listed as “no binding”. “CCCGAATATTCGCGACTTGCAAAGTTTCGGCGGCGAATTCGCTGCAAATTGCATTGCAGAATGCAAAAGACCTCAGAGGCGAGTGACGTGTCTCCCGTGCTCCCGAGGGATGATCCACAGCGGCGGACGCCGAACGAACCCAGCTTGTATGAATGGACATATCCAAAAAGACAGGTTTGTTTCAAGACAAG (double strand) [14710 fragment D (191 bp)]”: the binding entry is reported as “binds”.

As to “GTGGGCGTCGACGGGATGTTTCATGAAATGTCTCCGTAAATCTTCCAGCTGTCCCTGCCCGGATAACAAGCATATTGTGTGCCAAAACCCCGCCCGACGTCCAATTCCATCCAGAAAAACTTGTCTTGA (double strand) [14710 fragment C (129 bp)]”, the binding entry is given as “no binding”. With “GCGAATTCCGAGAGGGTTCCACGCTTCATCTTCTCATTTCGCTGGGCAGCCGATTGCGGCGCGAGGAGACCGTGCTGCCGTCCCATTCTCAAGTTGCGCAAAAGGTAAGGCGCTGGAAGGCCCGTCTTTTGAGCATCTGGTCAAAAAAATAAGTTATTACATGGGCTTGATGGGTGATCGGCTCAATCCGCGGACAAACCCTGAGGTTGAGGTGAGAGAGACCCGACTCGCGCCCGTTACCGAAAATGTGCAGATGGGAATTCGC (double strand) [15394 regulatory region (249 bp)]”, the binding entry is reported as “binds more weakly”.
